Assay: soluble on expression in E. coli; label from the status in PepcDB or PDB records

For “MLGAIIGDIVGSVYEWNNIKTKDFPLFRKDCFFTDDTVMTCAVAEAIMNGGQKDDFIDAMKKYGRMYPNADYGARFNAWLNSDNREPYNSFGNGSAMRISPCAWIMDCGFYAKTGIWPSSRGLTSLSAEVTHNHPEGVKGAMATADAIFLCRFYFGGYCREYEQSINDNPTECKRRIKDYIEKEYDYNLSQTLDEIRPNYRFNETCQETVPQAIIAFLESRDFEDAIRNAISLGGDSDTLAAITCSIAEAAYGIPDWIKDKAYSYLDEPLKDVVRRWENRIKAYLEHHHHHH”, which “soluble on expression in E. coli” value is on record?
Its value is “soluble”.

Which “soluble on expression in E. coli” value does the source give for “GMTTNTIMEQEARTAPQKIAEQLLANDAITESLGSVLREFKPKFVMIVGRGSSDHAGVFAKYLFEIEASIPTFAAAPSVASVYGKTLKLAGGLVIVISQSGRSPDILAQARMAKNAGAFCVALVNDETAPIKDIVDVVIPLRAGEEKAVAATKSYLATLSALLQVAAKWTQNESLVEAVNSLPQALQAAVDAEPQLRAGSLTDVKNLVVLGRGFGYAVSKEIALKLKEVCAIHAEAFSSAEFLHGPVTLVEKKLSILDVCIRDESYGSHVEQIANVKQRGANLIHLHQTSADIHPRIAPLALLQRFYIDVAAVAIALGINPDKPAGLKKVTQTL” here?
Its value is “soluble”.

For “MSLNRGIGVVTLSTLLASPSALARENPPAEDEPAALEALVVTGEKRERSLKDTASSVSLTSARDIDRKQTGNASVAEVINGSPNVVYTDSVGAPIIRGQDTQGPNNGQNVFWGGTVPRATINLDGHYLNYNEMFFGATSVWDVDSIEVFRGPQTTSQGANAIAGAIIVNTKDPTFSPEAAYQAEIGSYHSRRSSIAVSGPLAQDFAGRLAVDYAGRDTFIDYDNPKFQDSGTDQDFRALNARAKLLWLPSGIPGLESKFTFSHNDNNRPTQEAATRPFDKLDHRSTTMPSWEQDTNTSILDVAYDLDNGIRLFNQAQYSLSSVHRTTGAGGEGDADIRQKNASNESRISFGEQEDRISGMGGVYYARTRTDETLHLRGLSAFDDTKKNLGVFGELNYRLSDRWTLTTGLRYQEDRIERSGNSVLAPRPLDYQKTFSAFLPKVSLAFAATPDWTVGGLVSRGYNPGGVSLNLTTRNWAYFKEETIWNYELFTRASLLDGRLLLNGNLFFMDFKDAQYNIPVVVSPGVAQSYTINAEKAHAYGMELDLDYRLRDDLRLKASAGVLRTRIDEMSGNTGYEHNEFARSPGYTLSFGPSWDVTERLNLNAQVRYLDGYYSDTANTKAYSIKAYTLTDARASYRFNDQVQLYGYVKNVFDDRSPTYMQENRGIGGIEASMTQPRTLGIGIKGTFEGHHHHHH”, which “soluble on expression in E. coli” value is on record?
The value was “not soluble”.

Which “soluble on expression in E. coli” value does the source give for “SNAMNILIIGNGGREHALGWKAAQSPLADKIYVAPGNAGTALEPTLENVDIAATDIAGLLAFAQSHDIGLTIVGPEAPLVIGVVDAFRAAGLAIFGPTQAAAQLEGSKAFTKDFLARHNIPSAEYQNFTDVEAALAYVRQKGAPIVIKADGLAAGKGVIVAMTQEEAETAVNDMLAGNAFGDAGHRIVVEEFLDGEEASFIVMVDGENVLPMATSQDHKRVGDGDTGPNTGGMGAYSPAPVVTDDVHQRVMDQVIWPTVRGMAAEGNIYTGFLYAGLMISADGQPKVIEFNCRFGDPETQPIMLRMRSDLVELCLAGTQGKLNEKTSDWDERPSLGVVLAAGGYPADYRQGDVIHGLPQQEVKDGKVFHAGTKLNGNHEVVTNGGRVLCVTALGETVAQAQQYAYQLAEGIQWEGVFCRKDIGYRAIARGK” here?
The value was “soluble”.

Which “soluble on expression in E. coli” value does the source give for “MVHYKLTYFLSRGLGDVSRQLFHLADVDFEDERLEKPHFLEKKETYPFKQVPVLSVDGFQIPQSMAIARYLAKKFGFAGKTAEESAMVDAFVDQFKDFYSEIRDYYYTMLGLGLTDLDGDEQKDKVLIPARDKFLPLLTRYLEKSKSGFLVDGGLTFADLIILDNMTSLLNWWPEYANDYPVILAWRDKVMNYPRLKEYIEKRPVTMY” here?
The value was “not soluble”.

With “MEGLLIDYVQPGSIAEELEIEAGDRLVAINGQDLRDIIDFSFYAHDEELALEIVKPSGDHWEAEIERDGDEPLGLVFAPPVPAQCGNKCVFCFVHQLPLEHHHHHH” as the sequence, how does the “soluble on expression in E. coli” value read?
Its value is “soluble”.

Which “soluble on expression in E. coli” value does the source give for “FLVPPTVEQKTRPFTLPNLPLSSLSNSRAPLPISSMGISPDNVQSVQFQNGRCTLDGRLVGTTPVSLSHVAKIRGTSNGTVINLTELDGTPFHPFEGPAPIGFPDLGGCDWHINMTQFGHSSQTQYDVDTTPDTFVPHLGSIQANGIGSGNYVGVLSWISPPSHPSGSQVDLWKIPNYGSSITEATHLAPSVYPPGFGEVLVFFMSKMPGPGAYNLPCLLPQEYISHLASEQAPTVGEAALLHYVDPDTGRNLGEFKAYPDGFLTCVPNGASSGPQQLPINGVFVFVSWVSRFYQLKPVGTASSARGRLGLRR” here?
Its value is “soluble”.

Which “soluble on expression in E. coli” value does the source give for “MVNLDAEIYEHLNKQIKINELRYLSSGDDSDTFLCNEQYVVKVPKRDSVRISQKREFELYRFLENCKLSYQIPAVVYQSDRFNIMKYIKGERITYEQYHKLSEKEKDALAYDEATFLKELHSIEIDCSVSLFSDALVNKKDKFLQDKKLLISILEKEQLLTDEMLEHIETIYENILNNAVLFKYTPCLVHNDFSANNMIFRNNRLFGVIDFGDFNVGDPDNDFLCLLDCSTDDFGKEFGRKVLKYYQHKAPEVAERKAELNDVYWSIDQIIYGYERKDREMLIKGVSELLQTQAEMFIF” here?
The value was “soluble”.

For “MCFRIADGTFFGWEGCFFQAGSCPGTCTHVWNYAQTVANLFPRLERNMRETEFLRETDGQGKMNFRAKIQLEGKPWDMYPAVDGQLGSILRVYREWKISGDDDFLKKIWNQVVSALEFSASYWDSNQDCVLDGQQHNTYDIEFYGVNSLGNSIYYAALKAGAEMAEYLGEHERSQKWRSMEQAGCKRMDEMLFNGEYYRQVTDGDIDEYKYQYGEGCLSDQLLGQTLAHLYGLGHLFPEDHVKSAVFAIYKYNFKERMGSHKSLQRGYAYQDEPGLLLCSWPSGGRPKQPFVYSDEVWTGIEYQVAAGLIYEGFLQEGLEIVRAVRSRYDGYKRNPFNEVECGNHYARSMASWGVLNALSGLQVDLPHNSVTISPKVNQDCFSSFYSTGTEWGICRQFKDQSGALIQSFEALYHADLEHHHHHH”, which “soluble on expression in E. coli” value is on record?
The value was “not soluble”.

For “MPTALIADDEPNLSAELAERLAELWPELEIVAMPRNGVDTLAALNAARPDIAFLDIRMPGIDGLKLASLVPDVHVVFVTAYDEYAVEAFDRSAIDYLLKPVTDERLLRCIAKLQRGGFAPPGAQALSDARMPKEPTLIRWLTVGLKDTTRLVSVDDVLYFQALDKYTEVVTAGERHVIRTPLKELLQRLDQDRFAQVHRGVIVAYAAIDRIERDLLGRLCIHLHGHRDVLPVSRAYAGLFKHM”, which “soluble on expression in E. coli” value is on record?
Its value is “not soluble”.

With “MHHHHHHLTKVFGSRNDRTLRRMRKVVNIINAMEPEMEKLSDEELKGKTAEFRARLEKGEVLENLIPEAFAVVREASKRVFGMRHFDVQLLGGMVLNERCIAEMRTGEGKTLTATLPAYLNALTGKGVHVVTVNDYLAQRDAENNRPLFEFLGLTVGINLPGMPAPAKREAYAADITYGTNNEYGFDYLRDNMAFSPEERVQRKLHYALVDEVDSILIDEARTPLIISGANQTLASITFQNYFRLYEKLAGMTGTADTEAFEFSSIYKLDTVVVPTNRPMIRKDLPDLVYMTEAEKIQAIIEDIKERTAKGQPVLVGTISIEKSELVSNELTKAGIKHNVLNAKFHANEAAIVAQAGYPAAVTIATNMAGRGTDIVLGGSWQAEVAALENPTAEQIEKIKADWQVRHDAVLEAGGLHIIGTERHESRRIDNQLRGRSGRQGDAGSSRFYLSMEDALMRIFASDRVSGMMRK” as the sequence, how does the “soluble on expression in E. coli” value read?
Its value is “soluble”.

Which “soluble on expression in E. coli” value does the source give for “MTEFQLEKAATLKTIAIRAKKVGEMVDFYKKVMGFVLKSEENNLSIWGTREAGTQLLILEETRKAEDFHNEEKQMAYFSIKVPTEKEFLQIAQRVLEQDYPIDESFQIGTRQSMFITDLEGNQFEIFHDEATANSTSEKQPIVLKDLISEDLEPHQGLAAGSYLAHVQLKTNNQKEIKAYYEEVLGLKRNEKDQFVLEDGKATIGFQKPETSEVDQLPDPHLGLDFFTIKLSDQEHILAMEQQLTAKNQEFFIDQKKAIVTVFDPIGLEWWFVLK” here?
Its value is “not soluble”.

With “SLLGGPGIELFRRLVEEYEREHDVPMADIAAALAVQCRGGEAFLMAPDPPLSRRNRDQRRDRPQRPKRRPDLTTYRVAVGKRHKIGPGAIVGAIANEGGLHRSDFGQIRIGPDFSLVELPAKLPRATLKKLAQTRISGVLIDLRPYRPPDAARRHNGGKPRRKHVG” as the sequence, how does the “soluble on expression in E. coli” value read?
Its value is “not soluble”.

Which “soluble on expression in E. coli” value does the source give for “MRRGRGKGKKQNASAREDRGSGDEEKIPAYRRRGRPQKPMKDDFEEEEEEDDEEMVEKMEVEDEDEEIDDGSVTSKDLKERKRKMSNGSNTDLTEEENGLGSKPNTDDSTRSTSIGFRQNGSRRKSKPRRAAEAVVECNGV” here?
Its value is “soluble”.

With “MFQIQETIVSPDLFDKYFVCDYATCQGICCVEGESGAPLEAGEADLLRKYLDAVRDMLSSEALEVIDKQGVSYLDVEGDEVTSIVNGRDCVFTTYDEKGNCLCAFERAYRLGKIDFPKPLSCHLYPVRLTRYSSFTAVNYHRWEICRCAEALGRQMGTPLYRFLKEPLIRAFGKEWYKEMEEIAALLEQNPLKR” as the sequence, how does the “soluble on expression in E. coli” value read?
The value was “not soluble”.

Which “soluble on expression in E. coli” value does the source give for “MGSDKIHHHHHHMWCRNLTVRYPDQDRDVLNDLTVSLRQGETTLLIGPSGSGKTTFLHTLAGLMPETIEAEVTGEWRADGTVGMLFQQPDDQFCMQTVGAEIAFSLENRSIPRDEMEERIRTVLKRVGLDLALTTQIAGLSGGMKQRLALACVLALEPDILLLDEPTAQLDPHGRRLMMELIEELHHNPNVTLVLIEHQLEECVTFADRVLVFREGQLRLDGSPLDVFEEKREDLTRHGIMCPLLYPYTLETIPLTIATARFLDGPPVARRPVANETTLDLTDVTIAHGKRMILDQISLTASAGEWIMLVGRNGAGKSTLLETLAKLLPAQSGTIKLFQTPLKKWRDRTFYRQVGFVFQQPEFQFLKQTVADELAISSPSPARSQVADALQHYRLEDVAAQSPLALSLGQKRRLSVATMLLERKAVLLLDEPTFGQDAETTAQILDVLHQAREAGTTLIMVTHDMELVYRYADRVVVIGEKHVQFDGAPDELFRNESLLEHNQLIRPVSVRYQQLEEVKHRAGKQFVARTP” here?
Its value is “not soluble”.

Which “soluble on expression in E. coli” value does the source give for “GPGSMMSSATLSDVETLENIPRGAPIGGSGIVSGTASEGSSRGAERSTVANVSEDGERGRREEEEDRKPLIMDQSVIMDEEPYISPAKAKKISWKCGLCGYYVLAMDHNGNPLELTNSPSGEPLPMSCPRCMLLHHDWEPAVPFDDFNNHANIRSKQSNSYVISDQKSGKQAGFVPARTPAERDLKKTSADITRILQEVEDRWRNYAPRESPTSREQGPKGRLMAYYCDKCNRELLRMDQYGELVPMVSDKEGKPLPIVCPGCKEEHSEWVVRPFTVTR” here?
Its value is “soluble”.

Which “soluble on expression in E. coli” value does the source give for “MGSDKIHHHHHHMTQALTKQVIFDEFIDWLPENSEGRYELHDGVIVEMPKPSGKHSNVIGFLIEELFLSIIQIGKRGIWTIPRESIVKPNSKSGYEPDIIVLDQEALSNEPRWERESIIENPASVKLIVEVVSTAVASSRETRPTHCLTNWRDDYYKKRADYVRVASRREEMGIPEYWIVDYAGLGGRAFIGNPKQPTISVNYLIEGEYQVSQFRQGERIQSVTFPELDLTVDQIFQVG” here?
Its value is “not soluble”.

Which “soluble on expression in E. coli” value does the source give for “MGSDKIHHHHHHAGSCTGNFEEYNTNQFQIHEADPSTLMKSMIETIVNIQQNDSQMMDQMVGQLGGYLTCANVWSGTNFGTFNQSDAWNAGPWNTNFEKIYGNFFQIQEATNESGHYYAFARMIRAITMLRVADCYGPMPYSQVKKGNFYVAYDTEEQVYKNIMEDFASAANVLYNYYKDTNGNAPLASNDPVFSGNYANWARLANSMRLRVAIRISTAYPEMAKENAEAAASHEAGLIEANNDNAMMDCGSQTNPYQLAAVSWGDLRVNANIVDYMNGYGDPRMSKYFNHSTFTGHTQEYVGMRSGEDGFAKSDVAGYSIPAITGTSKLLVFCAAETAFLRAEGKLKNWSVGNKSAKEYYEEGIKLSMEQYGTTMPDNYLTNTEKPTVSHNNDPRGHAYTISNTVAVAWNDNNEEENLQRIITQKWIANYPLGLEAWAEYRRTGYPELYPCIDNLSPSGVDSKRGMRRLRFPYTEVQNNHSNYQQGVSYLKNGGPDNEATDLSWGKTN” here?
Its value is “not soluble”.

From the DeepSol protein solubility set
